Assays:
[1] = molecular target: soluble αβ-tubulin heterodimer purified from bovine brain (bovine) (UniProt Q6B856)
[2] = molecular target: GMPCPP-stabilized microtubules (unlabelled, polymerized bovine brain tubulin) (bovine, UniProt Q6B856 1-445); experiment: co-sedimentation
[3] = molecular target: soluble αβ-tubulin heterodimer purified from bovine brain (bovine) (UniProt Q6B856); experiment: SEC
[4] = molecular target: soluble αβ-tubulin heterodimer purified from bovine brain (bovine) (UniProt Q6B856); experiment: AUC
AUC = molecular target: the molecule itself; experiment: AUC

B1: full-length S. pombe Cls1p (residues 1-1462) (natural protein, UniProt O42874 1-1462, looked up)
chain: MADKDAQDFLKFLKSNASTDEKTRCLDTLRSFFNKNNIPNADLGLFVECFRLALTTVNPLLLRSSVACFETFLRRLRAQYPTWLKFRVPMLKNLVIDHIASRDLQKRVLNILIDLWHFNPSEIEKSLIHLSTTSKSAETRIQCFKWFVLAHNAHLSFDVKSLRPALYINLENANPSVREEAKEVLLLIYKNLSTSAKMQFITDVETTSGLRREILQSLVEELSLISSSSEVIIVQNSASSFQPAPFMTAVATLYPGVELENVKPLLANFSKQLEQDSASMLPAFEGRETEQNWSVRQDSVLRLRQYLRGNACIDYLPELLSVLKTLLPGILLALLSLRTTLSSSAIQLIKEMAIILKSNIDPFLELILPNLLKVCSVTKKLASQAANVTFAAILVNCGVLSRNLSFISLAAHDTNAQLRVFSSNWIFMLISLSPELKNLASLQTNLKAFEKLICRGLADSNSQVREVYRKSFWKLSEYFPSVQEELTNTLEPSVLKQLHLANPNRQAASFNFSGPKRAPIRPLSNLRSFSKSQKEETSSNSSNSSGTRRLGLPQRATPASRERVLPYTRSQAFHSTSLPPSLPSGHSPSIAIPSKRSVSATIKDESKTFELLKNIQRKYELILSGSSVDLPSAEFLSSNLTDALYSGSSICYSLIFSHSLLDLTFQYVDIASLLSQFLLCVYDPSNVGHSFALASFPYVKSHYDAHKYFPIVFDVLMNISNMAPHVKVFPFNTNQKRLIIHGCLLWLKEISDTKLNQLENKPFFVTDKLRYYSSKILAMTAKTKLTSKNWIPLSGLLFSLRAHDTFMFDGLLDRLNEESRTKLVSSWSKQDAFDYSKSSTHQEHLSKNLPTLNTSSSSNSSQTDLLVPHGKGETKETEMQSPIESKEGLLSKDTHIESPQGTSLEKENEEEGKNPVESNCSEESLDDHNIDQTLVNKKETLAQDSESLLQKNNALNEKGFENQFGLSSSAAKVLNKDTLDHVSGPISNSVSSSFKDFTRTPFKEINGERETGFELTSYVNALSKKDDINVQKTENVDESVGLNAMFMDNVNQDSLNSVDQSSGKDKLLLTSSTPNKPTTFFMPANEEILGSPAKDYDIHDQSYSVHELHSENMRENVGQSSLIYNNRDYMNTPMNDFSLSFSEIKGGILESPVESPMTGTISPIDADESVLHDIPAYESLNKSESNKYQEQAYSTPLHHTLNVLPKNKWILSRMHKMENGSPINVDKNLDDAVAALEAAVKELNDGSVNTKTLKFCIKVCKETPSMLYHSHGLLPAILHYIESNNSAMHISDCLILLHEFLVQGYQGVDMHTYHNIICILIEKAEKCKDEPVILAGIEDNITLIAEIADLQGLYEFTQQRLQSLNTETGEKSAPLLLMLLSAILMRLKDLEFLETKDLLRHVVLKYIDHTNPEIRKATFNVCLAVNTIVNNVDETFSILGGLNEGQRLLFMHYLKMKSDEKN
- MT rescue frequency in TIRF dynamics assay, 6 μM tubulin, Cls1p 20 nM to 140 nM [1]: 2.15 rescues/min
- stoichiometry N [2]: ~6 polymerized tubulin dimers per Cls1p monomer
- stoichiometry N (Cls1p molecules per αβ-tubulin dimer) [3]: 2

B2: Cls1p-GFP (full-length Cls1p with GFP fused to its C-terminus) (natural protein, S. pombe, UniProt O42874 1-1462, looked up)
chain: B1 chain
- stoichiometry N (tubulin dimer per complex) [4]: 1
- stoichiometry N (AUC): 2

B3: Cls1p^604 (residues 1-604) (domain or fragment, S. pombe, UniProt O42874 1-604, looked up)
chain: MADKDAQDFLKFLKSNASTDEKTRCLDTLRSFFNKNNIPNADLGLFVECFRLALTTVNPLLLRSSVACFETFLRRLRAQYPTWLKFRVPMLKNLVIDHIASRDLQKRVLNILIDLWHFNPSEIEKSLIHLSTTSKSAETRIQCFKWFVLAHNAHLSFDVKSLRPALYINLENANPSVREEAKEVLLLIYKNLSTSAKMQFITDVETTSGLRREILQSLVEELSLISSSSEVIIVQNSASSFQPAPFMTAVATLYPGVELENVKPLLANFSKQLEQDSASMLPAFEGRETEQNWSVRQDSVLRLRQYLRGNACIDYLPELLSVLKTLLPGILLALLSLRTTLSSSAIQLIKEMAIILKSNIDPFLELILPNLLKVCSVTKKLASQAANVTFAAILVNCGVLSRNLSFISLAAHDTNAQLRVFSSNWIFMLISLSPELKNLASLQTNLKAFEKLICRGLADSNSQVREVYRKSFWKLSEYFPSVQEELTNTLEPSVLKQLHLANPNRQAASFNFSGPKRAPIRPLSNLRSFSKSQKEETSSNSSNSSGTRRLGLPQRATPASRERVLPYTRSQAFHSTSLPPSLPSGHSPSIAIPSKRSVSATIKD
- stoichiometry N [2]: ~3 polymerized tubulin dimers per Cls1 molecule

Source: article PMC3156696 (Developmental cell, 2010)
